Laboratory results from US20090311271A1 (Pfizer, published 2009).

B1: LOX1-11A2 (antibody, V domains shown)
VH: EEQLVESGGGLVQPGGSLKLSCLASGFTLSNYGMNWIRQAPGKGLEWVASISSSSSYFYYADTVKGRFTISREDAKNTLNLQMTSLRSEDTALYYCARGITIAAGFTMDAWGQGTSVTVSS
VL: DIQMTQSPTSLSASLGETVSIECRASEDIYNNLAWYQQKSGKSPQLLIYYASTLQDGVPSRFSGSGSGTQFSLKISGMQPEDEGLYYCLQGSKYPRTFGGGTKLELKR
notes: Rat anti-mouse LOX-1 monoclonal antibody; also called rat anti-mouse LOX-1 antibody 11A2
B2: LOX1-33F1 (antibody, V domains shown)
VH: QVQLKESGPGLVQPSQTLSLTCTVSGFSLTSHAVNWVRQPPGKGLEWIGAIWSGGTTDYNSGFRSRLSISRDTSKSQVLLKMNSLQTEDTAMYFCARGYDGYYYYAMDVWGQGTSVTVSS
VL: DIVMTQSPSSLAVSAGETVTINCKSSQSLLSSRNQKNYLAWYQQKPGQSPKLLIYLASTRESGVPDRFIGSGSGTDFTLTITSVQAEDLADYYCQQHYNYYTFGAGTKLELKR
notes: Rat anti-mouse LOX-1 monoclonal antibody; also called rat anti-mouse LOX-1 antibody 33F1
B3: purified recombinant human CRP (ligand, UniProt P02741 19-224, looked up)
chain: QTDMSRKAFVFPKESDTSYVSLKAPLTKPLKAFTVCLHFYTELSSTRGYSIFSYATKRQDNEILIFWSKDIGYSFTVGGSEILFEVPEVTVAPVHICTSWESASGIVEFWVDGKPRVRKSLKKGYTVGAEASIILGQEQDSFGGNFEGSQSLVGDIGNVNMWDFVLSPDEINTIYLGGPFSPNVLNWRALKYEVQGEVFTKPQLWP
modifications: biotin label in the AlphaScreen assays (biotin-CRP); unlabelled in ELISA and cell assays
notes: Bought protein; also called C-reactive protein; biotin-CRP

How the values were obtained:
[1] = target: T1, recombinant mouse LOX-1 Fc protein (mouse, UniProt Q9EQ09 55-363, limits assumed); experiment: AlphaScreen competition: antibody against Bio-oxLDL binding to mFc-mLOX1
T1 construct: The order Fc then LOX-1 is read from the label mFc-mLOX1; also called mFc-mLOX1; not shown: Fc part (label 'mFc')

[2] = target: T1, recombinant mouse LOX-1 Fc protein; experiment: as above; remark: listed apart in the source
[3] = target: T1, recombinant mouse LOX-1 Fc protein; experiment: AlphaScreen competition: antibody against Bio-CRP binding to mFc-mLOX1; Bio-CRP + mFc-mLOX1 competition, not Bio-oxLDL
[4] = target: T1, recombinant mouse LOX-1 Fc protein; experiment: AlphaScreen competition: antibody against Bio-CRP binding to mFc-mLOX1
[5] = target: T2, human LOX-1 expressed on the cell surface (human, UniProt P78380 1-273); experiment: flow cytometry, CRP on LOX/CHO cells
T2 construct: whole, on cells; also called CHO/LOX-1; CHO-LOX-1
Procedure: (§1) Cells were analyzed using a Becton Dickinson FACSCalibur® flow cytometer with CellQuest software (Becton Dickinson). Results are presented as the geometric mean fluorescence intensity (MFI).

[6] = target: T2, human LOX-1 expressed on the cell …; experiment: flow cytometry: CRP (0-200 ug/ml) on CHO/LOX-1 cells, 60 min at 4 C, rabbit anti-CRP and labelled secondary antibody, MFI
Procedure: as §1

[7] = target: T2, human LOX-1 expressed on the cell …; experiment: flow cytometry, CRP on CHO/LOX-1 cells, detected with rabbit anti-CRP antibody; FACS on CHO/LOX-1 cells, 4 C
Procedure: as §1

T1 sequence (Q9EQ09 55-363 limits assumed): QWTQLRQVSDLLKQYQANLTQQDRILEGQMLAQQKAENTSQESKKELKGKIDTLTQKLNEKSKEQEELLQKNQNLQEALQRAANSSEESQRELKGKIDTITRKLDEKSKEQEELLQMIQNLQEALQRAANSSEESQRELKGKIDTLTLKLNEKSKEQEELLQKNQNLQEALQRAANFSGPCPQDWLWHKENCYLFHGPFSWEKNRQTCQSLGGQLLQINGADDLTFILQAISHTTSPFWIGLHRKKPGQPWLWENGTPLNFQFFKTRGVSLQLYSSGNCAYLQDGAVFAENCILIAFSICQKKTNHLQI

Binder	IC50 [1]	IC50 [2]	IC50 [3]	IC50 [4]	Kd [5]	Kd [6]	Kd [7]
B1	0.127 µg/mL	0.127 µg/mL					
B2	0.03 µg/mL	0.03 µg/mL	0.193 µg/mL	0.193 µg/mL			
B3					747 nM	86.6 µg/mL	86 µg/mL
